Data: patent US20240043568A1 (KEYMED BIOSCIENCES, published 2024)
Residue numbers refer to the chain shown, from its start.

T1: FcγRIIAH131 with His tag (UniProt P12318 34-218)
T1 construct: Bought protein; also called Fcγ RIIAH131 (Sino Biological #10374-H08H1)
T1 sequence (looked up): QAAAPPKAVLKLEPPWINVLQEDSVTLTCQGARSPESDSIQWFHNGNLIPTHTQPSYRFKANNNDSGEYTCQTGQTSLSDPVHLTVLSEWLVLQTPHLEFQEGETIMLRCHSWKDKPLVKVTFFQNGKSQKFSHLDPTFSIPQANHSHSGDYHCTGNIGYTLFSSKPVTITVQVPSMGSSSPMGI

B1: GPC3×CD3 κλ002 (bispecific antibody, human IgG4 S228P, kappa, lambda)
light 1: DVVMTQSPLSLPVTPGEPASISCRSSQSIVHSNGNTYLEWYLKKPGQSPQLLIYKVSNRFSGVPDRFSGSGSGTDFTLKISRVEAEDVGVYFCLQVTHVPLTFGQGTKLEIKRTVAAPSVFIFPPSDEQLKSGTASVVCLLNNFYPREAKVQWKVDNALQSGNSQESVTEQDSKDSTYSLSSTLTLSKADYEKHKVYACEVTHQGLSSPVTKSFNRGEC
heavy 1: QVQLVQSGAEVKKPGSSVKVSCKASGYTFADYEIHWVREAPGQGLEWMGAIHPGSGGTAYAQKFQGRVTLTADESSTTAYMELSSLRSEDTAVYYCTRYYSFAYWGQGTLVTVSSASTKGPSVFPLAPCSRSTSESTAALGCLVKDYFPEPVTVSWNSGALTSGVHTFPAVLQSSGLYSLSSVVTVPSSSLGTKTYTCNVDHKPSNTKVDKRVESKYGPPCPPCPAPEFEGGPSVFLFPPKPKDTLMISRTPEVTCVVVDVSQEDPEVQFNWYVDGVEVHNAKTKPREEQFNSTYRVVSVLTVLHQDWLNGKEYKCKVSNKGLASSIEKTISKAKGQPREPQVCTLPPSQEEMTKNQVSLSCAVKGFYPSDIAVEWESNGQPENNYKTTPPVLDSDGSFFLVSKLTVDKSRWQEGNVFSCSVMHEALHNHYTQKSLSLSLGK
light 2: QAVVTQEPSLTVSPGGTVTLTCRSSTGAVTTSNYANWVQEKPGQAPRGLIGGTNKRAPWTPARFSGSLLGGKAALTITGAQAEDEAEYYCVLWYSNLWVFGGGTKLTVLGQPKAAPSVTLFPPSSEELQANKATLVCLISDFYPGAVTVAWKADSSPVKAGVETTTPSKQSNNKYAASSYLSLTPEQWKSHRSYSCQVTHEGSTVEKTVAPTECS
heavy 2: EVQLVESGGGLVQPGGSLRLSCAASGFTFNTYAMNWVRKAPGKGLEWVGRIRSKYNNYATYYADSVKDRFTISRDDSKNSLYLQMNSLKTEDTAVYYCVRHGNFGNSYVSWFAYWGQGTLVTVSSASTKGPSVFPLAPCSRSTSESTAALGCLVKDYFPEPVTVSWNSGALTSGVHTFPAVLQSSGLYSLSSVVTVPSSSLGTKTYTCNVDHKPSNTKVDKRVESKYGPPCPPCPAPEFEGGPSVFLFPPKPKDTLMISRTPEVTCVVVDVSQEDPEVQFNWYVDGVEVHNAKTKPREEQFNSTYRVVSVLTVLHQDWLNGKEYKCKVSNKGLASSIEKTISKAKGQPREPQVYTLPPCQEEMTKNQVSLWCLVKGFYPSDIAVEWESNGQPENNYKTTPPVLDSDGSFFLYSKLTVDKSRWQEGNVFSCSVMHEALHNHYTQKSLSLSLGK
notes: also called GPC3 x CD3 κλ002; GPC3×CD3κλ bispecific antibody
B2: GPC3×CD3 κλ003 (bispecific antibody, human IgG4 S228P, kappa, lambda)
light 1: B1 light 1 with E128K, Q129K
heavy 1: B1 heavy 1 with K145E, K211E
light 2: B1 light 2
heavy 2: B1 heavy 2
notes: also called GPC3 x CD3 κλ003; GPC3×CD3κλ bispecific antibody

Columns and labels:
FcγRIIAH131 with His tag [1] = target: T1, FcγRIIAH131 with His tag; assay: SPR, His-tagged FcγRIIAH131 captured by anti-His antibody on the chip, antibody as analyte [row FcγRIIAH131, column GPC3×CD3 κλ002]
Procedure: (§1) 50 μg/mL His-Tag antibodies were conjugated to a CMS chip through amino groups, and recombinant proteins FcγRI, FcγRIIAH131, and FcγRIIIAV158 with His tags (Sino Biological, #10256-H08H/10374-H08H1/10389-H08H1) were respectively captured for a capture time of 40 s at a flow rate of 10 μL/min. After the baseline was stable, the gradient-diluted antibody (the initial concentration of 37.5 μg/mL, 2-fold dilution) flowed through the chip at a flow rate of 30 μL/min, with a binding time of 120 s and a dissociation time of 200 s. The affinity constants were obtained by fitting them with Biacore evaluation software. It can be seen from FIG. 22 that the GPC3×CD3κλ bispecific antibody has no binding to FcγRI, FcγRIIAH131, and FcγRIIIAV158; The wild-type IgG4 control antibody can bind to FcγRI with high affinity and weakly bind to Fcγ RIIAH131.

FcγRIIAH131 with His tag [2] = target: T1, FcγRIIAH131 with His tag; assay: SPR, His-tagged FcγRIIAH131 captured by anti-His antibody on the chip, antibody as analyte [row FcγRIIAH131, column GPC3×CD3 κλ003]
Procedure: as §1

Binder | binding result (FcγRIIAH131 with His tag [1]) | binding result (FcγRIIAH131 with His tag [2])
B1 | no binding | 
B2 |  | no binding
